Key:
HeLa Kyoto [1] = assay: solubility in G1/S (NP-40 vs SDS abundance) (log2 ratio); higher = more soluble; conditions: cell cycle stage: G1/S
HeLa Kyoto [2] = assay: melting temperature (median over replicates), in situ; higher = more thermally stable
HeLa Kyoto [3] = assay: solubility change mitosis vs G1/S (difference of NP-40 vs SDS log2 ratios) (log2 ratio difference); higher = more soluble in mitosis
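For melting temperature (median over replicates), in situ in this document: HeLa Kyoto cells synchronized by double thymidine or nocodazole block, proteins quantified by TMT10plex mass spectrometry, three independent biological replicates.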
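For solubility change mitosis vs G1/S (difference of NP-40 vs SDS log2 ratios) in this document: synchronized HeLa Kyoto cells (double thymidine block for G1/S, nocodazole release for mitosis), protein amounts in NP-40 versus SDS lysates quantified by mass spectrometry, three biological replicates.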
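For solubility in G1/S (NP-40 vs SDS abundance) in this document: HeLa Kyoto cells arrested at G1/S by double thymidine block, proteins quantified by TMT10plex mass spectrometry in mild NP-40 versus SDS extracts, three biological replicates.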

Sequence	solubility in G1/S (log2) (HeLa Kyoto [1])	melting temperature (HeLa Kyoto [2]; cell cycle stage: G1/S)	melting temperature (HeLa Kyoto [2]; cell cycle stage: mitosis)	solubility change mitosis (log2) (HeLa Kyoto [3])
MLAYCVQDATVVDVEKRRNPSKHYVYIINVTWSDSTSQTIYRRYSKFFDLQMQLLDKFPIEGGQKDPKQRIIPFLPGKILFRRSHIRDVAVKRLKPIDEYCRALVRLPPHISQCDEVFRFFEARPEDVNPPKEDYGSSKRKSVWLSSWAESPKKDVTGADATAEPMILEQYVVVSNYKKQENSELSLQAGEVVDVIEKNESGWWFVSTSEEQGWVPATYLEAQNGTRDDSDINTSKTGEVSKRRKAHLRRLDRRWTLGGMVNRQHSREEKYVTVQPYTSQSKDEIGFEKGVTVEVIRKNLEGWWYIRYLGKEGWAPASYLKKAKDDLPTRKKNLAGPVEIIGNIMEISNLLNKKASGDKETPPAEGEGHEAPIAKKEISLPILCNASNGSAVGVPDRTVSRLAQGSPAVARIAPQRAQISSPNLRTRPPPRRESSLGFQLPKPPEPPSVEVEYYTIAEFQSCISDGISFRGGQKAEVIDKNSGGWWYVQIGEKEGWAPASYIDKRKKPNLSRRTSTLTRPKVPPPAPPSKPKEAEEGPTGASESQDSPRKLKYEEPEYDIPAFGFDSEPELSEEPVEDRASGERRPAQPHRPSPASSLQRARFKVGESSEDVALEEETIYENEGFRPYAEDTLSARGSSGDSDSPGSSSLSLTRKNSPKSGSPKSSSLLKLKAEKNAQAEMGKNHSSASFSSSITINTTCCSSSSSSSSSLSKTSGDLKPRSASDAGIRGTPKVRAKKDADANAGLTSCPRAKPSVRPKPFLNRAESQSQEKMDISTLRRQLRPTGQLRGGLKGSKSEDSELPPQTASEAPSEGSRRSSSDLITLPATTPPCPTKKEWEGPATSYMTCSAYQKVQDSEISFPAGVEVQVLEKQESGWWYVRFGELEGWAPSHYLVLDENEQPDPSGKELDTVPAKGRQNEGKSDSLEKIERRVQALNTVNQSKKATPPIPSKPPGGFGKTSGTPAVKMRNGVRQVAVRPQSVFVSPPPKDNNLSCALRRNESLTATDGLRGVRRNSSFSTARSAAAEAKGRLAERAASQGSDSPLLPAQRNSIPVSPVRPKPIEKSQFIHNNLKDVYVSIADYEGDEETAGFQEGVSMEVLERNPNGWWYCQILDGVKPFKGWVPSNYLEKKN [SH3PXD2A]	0.0755	49.5 °C	49 °C	0.1
MLDHKDLEAEIHPLKNEERKSQENLGNPSKNEDNVKSAPPQSRLSRCRAAAFFLSLFLCLFVVFVVSFVIPCPDRPASQRMWRIDYSAAVIYDFLAVDDINGDRIQDVLFLYKNTNSSNNFSRSCVDEGFSSPCTFAAAVSGANGSTLWERPVAQDVALVECAVPQPRGSEAPSACILVGRPSSFIAVNLFTGETLWNHSSSFSGNASILSPLLQVPDVDGDGAPDLLVLTQEREEVSGHLYSGSTGHQIGLRGSLGVDGESGFLLHVTRTGAHYILFPCASSLCGCSVKGLYEKVTGSGGPFKSDPHWESMLNATTRRMLSHSSGAVRYLMHVPGNAGADVLLVGSEAFVLLDGQELTPRWTPKAAHVLRKPIFGRYKPDTLAVAVENGTGTDRQILFLDLGTGAVLCSLALPSLPGGPLSASLPTADHRSAFFFWGLHELGSTSETETGEARHSLYMFHPTLPRVLLELANVSTHIVAFDAVLFEPSRHAAYILLTGPADSEAPGLVSVIKHKVRDLVPSSRVVRLGEGGPDSDQAIRDRFSRLRYQSEA [ITFG3]	0.275	57.6 °C	57.1 °C	0.0404

— the supplement of paper PMC5998384
